Assay results reported in patent US20240376218A1 (published 2024).
Where a chain is given by its changes, count along the chain named.

B1: TPP-17578 (497A-M128-B10-1-hIgG1Lambda), WT (antibody, V domains shown)
VH: EVQLLESGGGLVQPGGSLRLSCAASGFTFSNAWMSWVRQAPGKGLEWVSGINWNGGSTGYADSVKGRFTISRDNSKNTLYLQMNSLRAEDTAVYYCVRTYSGHYGPYFDNWGQGTLVTVSS
VL: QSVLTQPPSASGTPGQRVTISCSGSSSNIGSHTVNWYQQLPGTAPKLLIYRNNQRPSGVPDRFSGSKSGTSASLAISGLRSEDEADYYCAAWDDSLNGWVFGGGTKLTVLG
B2: TPP-17578 (497A-M128-B10-1-hIgG1Lambda), afucosylated (antibody, V domains shown)
VH: B1 VH
VL: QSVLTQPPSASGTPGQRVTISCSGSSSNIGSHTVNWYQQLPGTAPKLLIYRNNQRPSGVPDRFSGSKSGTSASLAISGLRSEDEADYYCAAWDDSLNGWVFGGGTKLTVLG
modifications: afucosylated N-glycan at N297
B3: TPP-18205 (004-F10_497A-M296-L12+497A-M326-O09-hIgG1Lambda), afucosylated (antibody, V domains shown)
VH: EVQLLESGGGLVQPGGSLRLSCAASGFTFSSYAMSWVRQAPGKGLEWVSGIRWNSGSKGYAGSVKGRFTISRDNSKNTLYLQMNSLRAEDTAVYYCVRSGNYYVGYHGMDVWGQGTLVTVSS
VL: QSVLTQPPSASGTPGQRVTISCSGGNSNIGTYFVSWYQQLPGTAPKLLIYTNNQRPSGVPDRFSGSKSGTSASLAISGLRSEDEADYYCETWDSNTRVFGGGTKLTVLG
modifications: afucosylated N-glycan at N297
B4: TPP-18205 (004-F10_497A-M296-L12+497A-M326-O09-hIgG1Lambda), WT (antibody, V domains shown)
VH: B3 VH
VL: B3 VL
B5: TPP-17577 (497A-M178-K09-1-hIgG1Lambda), WT (antibody, V domains shown)
VH: EVQLLESGGGLLQPGGSLRLSCAASGFTFSNAWMSWVRQAPGKGLEWVAVISYDGRNKYSADSVKGRFTISRDNSKNTLYLQMNSLRAEDTAVYYCARGLPYGYWGQGTLVTVSS
VL: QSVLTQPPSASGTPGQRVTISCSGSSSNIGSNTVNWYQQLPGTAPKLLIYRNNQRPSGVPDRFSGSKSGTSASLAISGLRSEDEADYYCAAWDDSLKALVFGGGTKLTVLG
B6: TPP-17577 (497A-M178-K09-1-hIgG1Lambda), afucosylated (antibody, V domains shown)
VH: B5 VH
VL: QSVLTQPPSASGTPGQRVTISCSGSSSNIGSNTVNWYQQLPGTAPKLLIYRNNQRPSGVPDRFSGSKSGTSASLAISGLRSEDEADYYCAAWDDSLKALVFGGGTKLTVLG
modifications: afucosylated N-glycan at N297
B7: TPP-19546, afucosylated (antibody, human IgG1, lambda, V domains shown)
VH: B1 VH with N31S, N52S, N54S, V97A, N110Y
VL: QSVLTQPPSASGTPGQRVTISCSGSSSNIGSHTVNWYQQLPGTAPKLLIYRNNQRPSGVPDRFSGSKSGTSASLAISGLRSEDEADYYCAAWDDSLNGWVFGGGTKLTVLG
modifications: afucosylated (no fucose on the N-glycan at N297)
B8: TPP-20955, afucosylated (antibody, human IgG1, lambda, V domains shown)
VH: EVQLLESGGGLVQPGGSLRLSCAASGFTFSSYGMHWVRQAPGKGLEWVSAIKWGGGSHGYADSVKGRFTISRDNSKNTLYLQMNSLRAEDTAVYYCARGHHKGYDGRFFDYWGQGTLVTVSS
VL: QSVLTQPPSVSGAPGQRVTISCTGSSSNIGAGYNVHWYQQLPGTAPKLLIYTNNRRPSGVPDRFSGSKSGTSASLAISGLRSEDEADYYCAAWDASLSGWVFGGGTKLTVLG
modifications: afucosylated (no fucose on the N-glycan at N297)
B9: TPP-20950, afucosylated (antibody, human IgG1, lambda, V domains shown)
VH: B8 VH with K102S, Y104K
VL: B8 VL
modifications: afucosylated (no fucose on the N-glycan at N297)
B10: TPP-21045 (17578-gl79-hIgG1-wt-Lambda), afucosylated (antibody, V domains shown)
VH: B1 VH with N31S, N52S, N54S, D62L, V97A, Y107F, N110Y
VL: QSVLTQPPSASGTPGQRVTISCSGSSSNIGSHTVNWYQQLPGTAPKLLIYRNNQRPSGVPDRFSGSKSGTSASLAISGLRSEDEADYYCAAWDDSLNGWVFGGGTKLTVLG
modifications: afucosylated (no fucose on the N-glycan at N297)
B11: TPP-19546 (17578-gl33-hIgG1Lambda), afucosylated (antibody, V domains shown)
VH: B1 VH with N31S, N52S, N54S, V97A, N110Y
VL: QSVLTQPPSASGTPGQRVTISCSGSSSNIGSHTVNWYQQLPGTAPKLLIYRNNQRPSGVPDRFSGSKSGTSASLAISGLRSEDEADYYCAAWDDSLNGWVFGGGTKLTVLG
modifications: afucosylated (no fucose on the N-glycan at N297)
B12: TPP-20950 (18206-gl-42-hIgG1wt-Lambda), afucosylated (antibody, V domains shown)
VH: B8 VH with K102S, Y104K
VL: B8 VL
modifications: afucosylated (no fucose on the N-glycan at N297)
B13: TPP-20955 (18206-gl-47-hIgG1wt-Lambda), afucosylated (antibody, V domains shown)
VH: B8 VH
VL: B8 VL
modifications: afucosylated (no fucose on the N-glycan at N297)
B14: TPP-19546 (17578-gl33-hIgG1Lambda), wild type (antibody, V domains shown)
VH: B1 VH with N31S, N52S, N54S, V97A, N110Y
VL: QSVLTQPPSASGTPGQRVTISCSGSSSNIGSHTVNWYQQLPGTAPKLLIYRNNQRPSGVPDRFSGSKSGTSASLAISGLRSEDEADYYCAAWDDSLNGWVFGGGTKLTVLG
B15: TPP-21045 (17578-gl79-hIgG1-wt-Lambda), wild type (antibody, V domains shown)
VH: B1 VH with N31S, N52S, N54S, D62L, V97A, Y107F, N110Y
VL: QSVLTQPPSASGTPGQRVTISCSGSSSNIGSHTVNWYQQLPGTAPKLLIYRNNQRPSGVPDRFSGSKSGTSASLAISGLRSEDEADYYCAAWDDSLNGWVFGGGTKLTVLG
B16: TPP-20965 (18206-gl-58-hIgG1wt-Lambda), afucosylated (antibody, V domains shown)
VH: B8 VH with H58T, K102S, Y104K
VL: B8 VL
modifications: afucosylated (no fucose on the N-glycan at N297)
B17: TPP-17578 (antibody, human IgG1, lambda, V domains shown)
VH: B1 VH
VL: not shown
B18: TPP-18205 (antibody, human IgG1, lambda, V domains shown)
VH: B3 VH
VL: B3 VL
B19: TPP-17577 (antibody, human IgG1, lambda, V domains shown)
VH: B5 VH
VL: not shown
B20: TPP-21045 (antibody, human IgG1, lambda, V domains shown)
VH: B1 VH with N31S, N52S, N54S, D62L, V97A, Y107F, N110Y
VL: not shown

biological target: human CCR8 (P51685_CCR8_HUMAN) (human, UniProt P51685 1-355); experiment: cell-based or functional assay

Point of comparison: B3, “ADCC EC50, activated Tregs + NK92v, Donor 1730” value 1.05 nM. Against it:
- B1 — far higher, 197000 nM
- B2 — 18-fold higher, 19 nM
- B4 — 58-fold lower, ~0.018 nM
- B6 — 4.4-fold higher, 4.57 nM

Point of comparison: B2, “ADCC Max Response, activated Tregs + NK92v, Donor 1213” value 25%. Against it:
- B1 — lower, 5%
- B3 — higher, 52%
- B4 — lower, 20%
- B5 — lower, 10%
- B6 — higher, 41%

Point of comparison: B6, “ADCC Max Response, activated Tregs + NK92v, Donor 1730” value 40%. Against it:
- B1 — lower, 8%
- B2 — lower, 38%
- B3 — higher, 58%
- B4 — lower, 24%
- B5 — lower, 13%

Point of comparison: B3, “ADCC EC50, activated Tregs + NK92v, Donor 1213” value 0.23 nM. Against it:
- B2 — 40-fold higher, 9.2 nM
- B4 — 41-fold lower, ~0.00558 nM
- B6 — 8-fold higher, 1.85 nM

biological target: human CCR8 (human, UniProt P51685 1-355); experiment: cell-based or functional assay

Point of comparison: B7, “ADCC Max Response (%); activated human Tregs (Donor 1100) as target cells, NK92v effector cells” value 54%. Against it:
- B8 — higher, 91%
- B9 — higher, 97%

Point of comparison: B7, “ADCC hTreg EC50 (pM); activated human Tregs (Donor 1100) as target cells, NK92v effector cells” value 8840 pM. Against it:
- B8 — lower, 5.82 pM
- B9 — lower, 9.51 pM

biological target: T1, human CCR8 (human, UniProt P51685 1-355); experiment: cell-based or functional assay

Point of comparison: B10, “ADCP EC50 (pM); activated human Tregs donor 1212 + M2c macrophages” value 1220 pM. Against it:
- B12 — lower, 128 pM
- B13 — lower, 408 pM

Point of comparison: B11, “ADCP Max Response (%); activated human Tregs donor 1212 + M2c macrophages” value 20%. Against it:
- B10 — higher, 30%
- B12 — higher, 32%
- B13 — higher, 29%

biological target: T1, human CCR8; experiment: cell-based or functional assay; remark: another data set of the same source

Point of comparison: B16, “ADCP EC50 (pM); activated human Tregs donor 1163 + M2c donor 1” value 766 pM. Against it:
- B10 — lower, 30.1 pM
- B15 — lower, 130 pM

Point of comparison: B10, “ADCP Max Response (%); activated human Tregs donor 1163 + M2c donor 1” value 28%. Against it:
- B14 — lower, 14%
- B11 — lower, 15%
- B15 — lower, 27%
- B16 — higher, 44%

biological target: T1, human CCR8; experiment: cell-based or functional assay; remark: another data set of the same source

Point of comparison: B16, “ADCP EC50 (pM); activated human Tregs donor 1163 + M2c donor 2” value 300 pM. Against it:
- B10 — lower, 52.9 pM
- B14 — higher, ~1.69e+07 pM
- B11 — higher, 404 pM
- B15 — lower, 162 pM

Point of comparison: B15, “ADCP Max Response (%); activated human Tregs donor 1163 + M2c donor 2” value 27%. Against it:
- B10 — higher, 28%
- B14 — lower, 18%
- B11 — lower, 18%
- B16 — higher, 36%

biological target: T1, human CCR8; experiment: cell-based or functional assay; remark: another data set of the same source

Point of comparison: B16, “ADCP EC50 (pM); activated human Tregs donor 1212 + M2c donor 3” value 163 pM. Against it:
- B10 — lower, 9.2 pM
- B12 — lower, 23 pM
- B13 — lower, 14 pM

Point of comparison: B10, “ADCP Max Response (%); activated human Tregs donor 1212 + M2c donor 3” value 13%. Against it:
- B12 — higher, 14%
- B16 — higher, 14%
- B13 — the same, 13%

biological target: T1, human CCR8; experiment: cell-based or functional assay; remark: another data set of the same source

Point of comparison: B10, “ADCP EC50 (pM); activated human Tregs donor 1212 + M2c donor 4” value 17.1 pM. Against it:
- B12 — lower, 10.7 pM
- B16 — higher, 563 pM
- B13 — lower, 13.2 pM

Point of comparison: B12, “ADCP Max Response (%); activated human Tregs donor 1212 + M2c donor 4” value 24%. Against it:
- B10 — lower, 23%
- B16 — lower, 23%
- B13 — lower, 23%

biological target: T2, human CCR8 (human, UniProt P51685 1-355); experiment: cell-based or functional assay

Point of comparison: B17, “Ca flux assay IC50 (nM), block of signaling induced by CCL1 at 80 ng/ml; CHO cells expressing human CCR8” value 4.53 nM. Against it:
- B18 — 2.8-fold lower, 1.6 nM
- B19 — 21-fold higher, 93.8 nM

biological target: T2, human CCR8; experiment: cell-based or functional assay; remark: another data set of the same source

For B20, the “Ca flux assay IC50 (nM), block of signaling induced by CCL1 at 60 ng/ml; CHO cells expressing human CCR8” value was 0.29 nM.
